Laboratory results published in PMC9367475.

Assays:
[1] = biological target: DC-SIGN on THP-1 cells induced with PMA and IL-4 (DC-THP-1) (human (endogenous in THP-1)) (UniProt Q9NNX6)
[2] = biological target: human DC-SIGN expressed on HEK 293T cells (DC-HEK) (human) (UniProt Q9NNX6)

Substance: recombinant SARS-CoV-2 spike protein (from UniProt P0DTC2 14-1273) (natural protein)
- IL-1β mRNA (RT-qPCR, 6 h and 12 h: ~ -2.5 to ~ -4 log10) in DC-THP-1 cells challenged with Spike protein pre-incubated with rfhSP-D 20 µg/ml, against Spike protein without rfhSP-D [1]: -4
- IL-6 mRNA (RT-qPCR, 12 h) in DC-THP-1 cells challenged with Spike protein pre-incubated with rfhSP-D 20 µg/ml, against Spike protein without rfhSP-D [1]: -5
- IL-8 mRNA (RT-qPCR, 6 h and 12 h: ~ -2.3 to ~ -4.8 log10) in DC-THP-1 cells challenged with Spike protein pre-incubated with rfhSP-D 20 µg/ml, against Spike protein without rfhSP-D [1]: -4.8
- MHC class II mRNA (RT-qPCR, 6 h and 12 h: - 2 to - 2.7 log10) in DC-THP-1 cells challenged with Spike protein pre-incubated with rfhSP-D 20 µg/ml, against Spike protein without rfhSP-D [1]: -2.7
- NF-κB mRNA (RT-qPCR, 6 h and 12 h: ~ -1 to ~ -4 log10) in DC-THP-1 cells challenged with Spike protein pre-incubated with rfhSP-D 20 µg/ml, against Spike protein without rfhSP-D [1]: -4
- TNF-α mRNA (RT-qPCR, 6 h and 12 h: ~ -3.1 to ~ -6.8 log10) in DC-THP-1 cells challenged with Spike protein pre-incubated with rfhSP-D 20 µg/ml, against Spike protein without rfhSP-D [1]: -6.8
- IFN-α mRNA (RT-qPCR, 6 h) in DC-HEK cells challenged with Spike protein pre-incubated with rfhSP-D 20 µg/ml, against Spike protein without rfhSP-D [2]: -2.1
- NF-κB mRNA (RT-qPCR, 6 h) in DC-HEK cells challenged with Spike protein pre-incubated with rfhSP-D 20 µg/ml, against Spike protein without rfhSP-D [2]: -1.2
- RANTES mRNA (RT-qPCR, 6 h) in DC-HEK cells challenged with Spike protein pre-incubated with rfhSP-D 20 µg/ml, against Spike protein without rfhSP-D [2]: -1.3
- TNF-α mRNA (RT-qPCR, 6 h) in DC-HEK cells challenged with Spike protein pre-incubated with rfhSP-D 20 µg/ml, against Spike protein without rfhSP-D [2]: -3.3
